How the values were obtained:
[1] = target: human TRiC subunit CCT8 (human) (UniProt P50990); assay: native MS; hTRiC in ammonium acetate pH 7.5 disrupted with 25% (v/v) DMSO, analysed within 30 min; dimers assigned by mass within 12 Da
[2] = target: the molecule itself; assay: intact mass spectrometry of reverse phase fractions (denaturing); RP-HPLC fractions of hTRiC in acetonitrile/TFA elution buffer, 0.1-0.6 μM, nanoelectrospray, QExactive Plus EMR; partially unfolded dimers; dimer masses fitted assuming disulfide formation (-2 Da)

Molecule	percent of all dimer signal [1] [%]	stoichiometry N [2]
human TRiC subunit CCT8 (from UniProt P50990 2-548) (natural protein)	15	
human TRiC subunit CCT2 (natural protein, UniProt P78371 2-535, looked up, N-terminal acetylation, CCT2 subunit of human TRiC; initiator methionine removed (from the measured mass); also called CCTβ; source: Hi5 (Trichoplusia ni) cells, baculovirus pYC35 co-expressing CCT1-8; purified as hTRiC (calmodulin resin, monoQ, SEC); released by RP-HPLC or by 25% DMSO or methanol) ASLSLAPVNIFKAGADEERAETARLTSFIGAIAIGDLVKSTLGPKGMDKILLSSGRDASLMVTNDGATILKNIGVDNPAAKVLVDMSRVQDDEVGDGTTSVTVLAAELLREAESLIAKKIHPQTIIAGWREATKAAREALLSSAVDHGSDEVKFRQDLMNIAGTTLSSKLLTHHKDHFTKLAVEAVLRLKGSGNLEAIHIIKKLGGSLADSYLDEGFLLDKKIGVNQPKRIENAKILIANTGMDTDKIKIFGSRVRVDSTAKVAEIEHAEKEKMKEKVERILKHGINCFINRQLIYNYPEQLFGAAGVMAIEHADFAGVERLALVTGGEIASTFDHPELVKLGSCKLIEEVMIGEDKLIHFSGVALGEACTIVLRGATQQILDEAERSLHDALCVLAQTVKDSRTVYGGGCSEMLMAHAVTQLANRTPGKEAVAMESYAKALRMLPTIIADNAGYDSADLVAQLRAAHSEGNTTAGLDMREGTIGDMAILGITESFQVKRQVLLSAAEAAEVILRVDNIIKAAPRKRVPDHHPC		2
human TRiC subunit CCT4 (natural protein, UniProt P50991 2-539, looked up, CCT4 subunit of human TRiC; initiator methionine removed, proline exposed, not acetylated (from the measured mass); also called CCTδ; source: Hi5 (Trichoplusia ni) cells, baculovirus pYC35 co-expressing CCT1-8; purified as hTRiC (calmodulin resin, monoQ, SEC); released by RP-HPLC or by 25% DMSO or methanol) PENVAPRSGATAGAAGGRGKGAYQDRDKPAQIRFSNISAAKAVADAIRTSLGPKGMDKMIQDGKGDVTITNDGATILKQMQVLHPAARMLVELSKAQDIEAGDGTTSVVIIAGSLLDSCTKLLQKGIHPTIISESFQKALEKGIEILTDMSRPVELSDRETLLNSATTSLNSKVVSQYSSLLSPMSVNAVMKVIDPATATSVDLRDIKIVKKLGGTIDDCELVEGLVLTQKVSNSGITRVEKAKIGLIQFCLSAPKTDMDNQIVVSDYAQMDRVLREERAYILNLVKQIKKTGCNVLLIQKSILRDALSDLALHFLNKMKIMVIKDIEREDIEFICKTIGTKPVAHIDQFTADMLGSAELAEEVNLNGSGKLLKITGCASPGKTVTIVVRGSNKLVIEEAERSIHDALCVIRCLVKKRALIAGGGAPEIELALRLTEYSRTLSGMESYCVRAFADAMEVIPSTLAENAGLNPISTVTELRNRHAQGEKTAGINVRKGGISNILEELVVQPLLVSVSALTLATETVRSILKIDDVVNTR		2
